The text below walks through data of patent US20100234287A1, “Targeting Bacterial Suicide Pathways for the Development of Novel Antibiotics” (UNIVERSITY OF MEDICINE AND DENTISTRY OF NEW JERSEY, priority 2006, published 2010).

d = 2'-deoxy (DNA); r = 2'-OH (RNA)

For one series, the system named is wild type yeast cells. The class given is cell-based.
The target of a further series is MazF (Escherichia coli, UniProt P0A850+P0AE70).
Series [1] has as its system E. coli cells. Conditions: MazF induction (Zhang et al., 2003b); cited from earlier work.
The next series has as its system lpp mRNA. The class given is cell-based, E. coli.
Series [2] deals with cellular mRNAs (ompA, tufA, ompF) and polysomes. The experiment in a line: Northern blot and polysome pattern after Doc induction (pBAD, arabinose).
Description: Northern blot analysis after Doc induction. The doe gene was induced with use of a pBAD vector by the addition of arabinose. At the times after induction indicated on top of the gels, total cellular RNAs were extracted and analyzed by Northern blot for ompA, tufA and ompF mRNAs.
Polysome patterns of cells without (left panels) or with Doc induction (right panels) using cells harboring pBADdoc. Polysome patterns were analyzed as described in FIG. 11 with and without Doc induction by the addition of arabinose. Polysome patterns were analyzed in the presence (upper panels) or in the absence of hygromycin, an antibiotic that blocks translation elongation reaction.
The target of series [3] is T1, ChpBK, His-tagged at the C-terminal end (E. coli K12, UniProt P33647 1-116).
T1 construct: not shown: C-terminal His tag from pET21
T1 sequence (looked up): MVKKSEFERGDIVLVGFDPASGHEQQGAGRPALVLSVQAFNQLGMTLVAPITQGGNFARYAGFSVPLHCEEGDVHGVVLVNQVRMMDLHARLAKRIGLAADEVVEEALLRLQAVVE
The experiment in a line: Ni-NTA purification of the complex via the His-tagged toxin.

The target in series [4] is T2, YafQ with His6 tag at the carboxy terminus (E. coli K12, UniProt Q47149 1-92).
T2 construct: not shown: C-terminal His6 tag from the pET vector
T2 sequence (looked up): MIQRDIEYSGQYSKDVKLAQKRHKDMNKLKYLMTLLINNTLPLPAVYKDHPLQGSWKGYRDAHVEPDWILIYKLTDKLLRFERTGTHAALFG
Description: affinity chromatography, co-purification via His6-tagged YafQ.

Series [5] has as its target T3, HipA, His-tagged at the C-terminal end (E. coli K12, UniProt P23874 1-440).
T3 construct: not shown: C-terminal His tag from pET21
T3 sequence (looked up): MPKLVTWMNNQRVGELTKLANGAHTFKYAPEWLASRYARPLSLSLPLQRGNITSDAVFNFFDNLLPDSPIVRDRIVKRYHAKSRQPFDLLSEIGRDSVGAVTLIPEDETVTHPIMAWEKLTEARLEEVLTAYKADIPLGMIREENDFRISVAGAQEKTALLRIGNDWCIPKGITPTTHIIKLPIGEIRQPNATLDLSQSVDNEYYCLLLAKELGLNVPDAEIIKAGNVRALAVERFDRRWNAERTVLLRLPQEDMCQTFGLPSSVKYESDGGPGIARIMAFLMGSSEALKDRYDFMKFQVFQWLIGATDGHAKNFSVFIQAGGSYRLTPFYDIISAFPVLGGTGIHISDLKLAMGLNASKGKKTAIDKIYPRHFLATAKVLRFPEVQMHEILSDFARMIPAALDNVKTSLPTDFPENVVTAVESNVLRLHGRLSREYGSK
Description: Ni-NTA purification of the complex via the His-tagged toxin.

Series [6] deals with translation initiation complex. The experiment in a line: Toeprinting assay on a translation initiation complex (mazG mRNA fragment, 70S ribosomes). The format is biochemical, E. coli. The settings on record: only in the presence of ribosomes.
The test system of series [7] is E. coli cells. The class given is cell-based. Conditions: arabinose-inducible pBAD vector.
In a further series the test system is ompA and ompF mRNAs. The class given is cell-based, E. coli. The settings on record: 2-h induction of YoeB with arabinose.
Series [8] concerns the target T4, RelE, His-tagged at the C-terminal end (E. coli K12, UniProt P0C077 1-95).
T4 construct: not shown: C-terminal His tag from pET21
T4 sequence (looked up): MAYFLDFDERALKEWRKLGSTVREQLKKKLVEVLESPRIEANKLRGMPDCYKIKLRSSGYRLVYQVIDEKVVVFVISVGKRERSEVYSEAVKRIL
Description: Ni-NTA purification of the complex via the His-tagged toxin.

In another series the target is T5, YdcE (B. subtilis, UniProt P96622 1-116).
T5 construct: also called MazF homologue from B. subtilis
T5 sequence (looked up): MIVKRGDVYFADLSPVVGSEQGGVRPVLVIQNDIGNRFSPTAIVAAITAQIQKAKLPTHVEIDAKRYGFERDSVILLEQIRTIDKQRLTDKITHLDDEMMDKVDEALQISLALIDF
Description: purification of the toxin-antitoxin complex.

The target in series [9] is T6, MazF, His-tagged at the C-terminal end (E. coli K12, UniProt P0AE70 1-111).
T6 construct: not shown: C-terminal His tag from pET21
T6 sequence (looked up): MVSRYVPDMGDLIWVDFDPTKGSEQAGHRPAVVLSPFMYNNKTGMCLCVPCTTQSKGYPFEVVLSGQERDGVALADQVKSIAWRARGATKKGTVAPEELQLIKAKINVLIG
The experiment in a line: Ni-NTA purification of the complex via the His-tagged toxin.

The next series has as its system E. coli. The format is cell-based.

For the molecule “RelE: E. coli toxin, ribosome-associating factor that stimulates ribosomal endo-ribonuclease activity”, the “toxicity / growth inhibition in yeast” value in the series on wild type yeast cells was “prokaryote-specific growth inhibitors”. As to dGdAdTdArUdAdCdAdTdAdTdG [CBS-1], the “function as substrate for MazF” value on MazF (MazF fused to trigger factor, 37° C., pilot experiment) is “suitable and sensitive substrate”. For “dGdAdTdArUrArCdGdTdAdTdG (GATAUACGTATG; sugars from the 5' end d4 r3 d5, backbone not given here) [CBS-2]”, the “cleavage by MazF” value in the series with MazF (substrate not yet synthesized) was “not by MazF”.

B1: MazF: E. coli toxin, sequence-specific (ACA) endoribonuclease, mRNA interferase (protein)
chain: T6 sequence (looked up)
modifications: left off: small tags and cut ends
For B1, in the series on E. coli cells [1], the “time after induction until cellular protein synthesis is inhibited” value is 15 to 20 min. The “time after induction until full-length lpp mRNA disappears” value in the series with lpp mRNA is reported as no more than 5 min.

B2: Doc: toxin of the Doc-Phd TA operon from phage P1 (protein)
chain: MRHISPEELIALHDANISRYGGLPGMSDPGRAEAIIGRVQARVAYEEITDLFEVSATYLVATARGHIFNDANKRTALNSALLFLRRNGVQVFDSPELADLTVGAATGEISVSSVADTLRRLYGSAE
modifications: left off: small tags and cut ends
Take B2: the “degradation of cellular mRNAs” value in series [2] (120 min after induction) is reported as “not degraded”. Besides, in series [2] (after 2 h induction, without addition of hygromycin), the polysome pattern entry is recorded as “did not change”.

B3: ChpBI (other, E. coli K12, UniProt P08365 1-83, looked up)
chain: MRITIKRWGNSAGMVIPNIVMKELNLQPGQSVEAQVSNNQLILTPISRRYSLDELLAQCDMNAAELSEQDVWGKSTPAGDEIW
notes: also called ChpBI antitoxin
With B3, the binding result in series [3] was “binds”.

B4: DinJ (other, E. coli K12, UniProt Q47150 1-86, looked up)
chain: MAANAFVRARIDEDLKNQAADVLAGMGLTISDLVRITLTKVAREKALPFDLREPNQLTIQSIKNSEAGIDVHKAKDADDLFDKLGI
notes: Co-expressed with YafQ from a pET vector; the His6 tag was added only to YafQ; also called DinJ antitoxin
As for B4, in series [4], the binding result is given as “binds”.

B5: HipB (other, E. coli K12, UniProt P23873 1-88, looked up)
chain: MMSFQKIYSPTQLANAMKLVRQQNGWTQSELAKKIGIKQATISNFENNPDNTTLTTFFKILQSLELSMTLCDAKNASPESTEQQNLEW
notes: also called HipB antitoxin
Turning to B5, in [5], the binding result was “binds”.

B6: YoeB: E. coli toxin of the YoeB-YefM TA system, 50S ribosome associating protein (protein)
chain: MKLIWSEESWDDYLYWQETDKRIVKKINELIKDTRRTPFEGKGKPEPLKHNLSGFWSRRITEEHRLVYAVTDDSLLIAACRYHY
modifications: left off: small tags and cut ends
notes: E. coli toxin of the YoeB-YefM TA system, 50S ribosome associating protein
B6: the “toxicity / growth inhibition in yeast” value with wild type yeast cells is “not toxic”. Besides, the “shift of the toeprint band upstream of the normal toeprinting band” value in [6] is 11 bases. For the same molecule, the “time after induction until cellular protein synthesis is almost completely inhibited” value in the series with E. coli cells [7] is given as no more than 5 min. For the same molecule, in the series on ompA and ompF mRNAs, the “position of primer extension block downstream of the initiation codon, ompA mRNA” value was 3 bases and the “position of primer extension block downstream of the initiation codon, ompF mRNA” value is recorded as 6 bases. In the series with lpp mRNA, the “time after induction at which a substantial amount of full-length lpp mRNA is still present” value is given as “more than 1 h”.

B7: RelB (other, E. coli K12, UniProt P0C079 1-79, looked up)
chain: MGSINLRIDDELKARSYAALEKMGVTPSEALRLMLEYIADNERLPFKQTLLSDEDAELVEIVKERLRNPKPVRVTLDEL
notes: also called RelB antitoxin
Regarding B7, the binding result in series [8] is “binds”.

B8: YdcD (other, B. subtilis, UniProt P96621 1-93, looked up)
chain: MSESSARTEMKISLPENLVAELDGVAMREKRSRNELISQAVRAYVSERTTRHNRDLMRRGYMEMAKINLNISSEAHFAECEAETTVERLVSGG
notes: also called YdcD antitoxin
For B8, the binding result in the series with YdcE is given as “binds”.

B9: MazE (other, E. coli K12, UniProt P0AE72 1-82, looked up)
chain: MIHSSVKRWGNSPAVRIPATLMQALNLNIDDEVKIDLVDGKLIIEPVRKEPVFTLAELVNDITPENLHENIDWGEPKDKEVW
notes: also called MazE antitoxin
In the case of B9, the binding result in [9] is “binds”.

B10: YafQ: E. coli toxin of the YafQ-DinJ TA system, sequence-specific MIase (protein)
chain: T2 sequence (looked up)
modifications: left off: small tags and cut ends
Turning to B10, the “toxicity / growth inhibition in E. coli” value in the series with E. coli is listed as “growth inhibitor”. Also, in the series on wild type yeast cells, the “toxicity / growth inhibition in yeast” value is on record as “growth inhibitor”.
